In patent US20200399385A1 (Bristol-Myers Squibb, published 2020):
Changes are numbered by the printed parent chain. Values joined by “and” are separate entries in the source; they are usually repeats but may differ in a detail not shown here. Identical values can stand only once.

Key:
human OX40 on cells [1] = biological target: T1, human OX40 on cells (human, UniProt P43489 29-277); assay: FACS competition on hOX40-293 cells: unlabeled antibody first, then PE-labeled L106 (2.5 ug/mL per the text)
T1 construct: also called hOX40-293 cells; hOX40-HT1080
T1 sequence: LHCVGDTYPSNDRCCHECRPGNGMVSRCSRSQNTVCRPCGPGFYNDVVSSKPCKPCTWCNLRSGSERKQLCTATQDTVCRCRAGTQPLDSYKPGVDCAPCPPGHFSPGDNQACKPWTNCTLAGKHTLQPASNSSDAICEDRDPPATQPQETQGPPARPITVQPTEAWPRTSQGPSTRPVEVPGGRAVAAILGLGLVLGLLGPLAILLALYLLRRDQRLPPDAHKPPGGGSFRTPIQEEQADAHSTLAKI
Experimental: Briefly, 293 cells stably transfected with human OX40 were first incubated with varying concentrations of unlabeled anti-OX40 antibodies. […] The fluorescence intensity of the staining was measured using a FACSCanto II flow cytometer (Becton Dickinson).

cynomolgus OX40 on cells [2] = biological target: T2, cynomolgus OX40 on cells (cynomolgus, UniProt P43489 29-277 (human entry)); assay: FACS, activated cyno T cells; mean ± SD, n=4; mean ± SD of n=4 experiments (Table 8), not the single experiment of FIGS. 12A and 12B
T2 construct: also called cynoOX40-CHO
T2 chain: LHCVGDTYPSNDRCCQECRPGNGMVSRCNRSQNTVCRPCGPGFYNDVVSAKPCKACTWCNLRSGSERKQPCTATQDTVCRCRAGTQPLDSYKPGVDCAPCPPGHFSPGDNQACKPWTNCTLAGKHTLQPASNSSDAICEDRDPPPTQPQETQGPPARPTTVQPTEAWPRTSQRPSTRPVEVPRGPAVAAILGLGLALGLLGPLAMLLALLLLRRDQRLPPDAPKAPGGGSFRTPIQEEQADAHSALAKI
Experimental: (§1) Briefly, cells were activated for several days before the binding assay in order to induce OX40 expression. Total leukocytes were isolated from cynomolgus macaque peripheral blood by lysis of red blood cells using an ammonium chloride buffer. The leukocytes were then cultured for four to five days with in flasks pre-coated with anti-human CD3 plus anti-human CD28 antibodies that cross-react with cynomolgus macaque, in the presence of recombinant human IL-2, in order to expand and activate T cells. On the day of the assay, the cells were harvested and stained with a titration of each anti-OX40 antibody. Bound antibodies were detected with a fluorescently conjugated anti-human IgG polyclonal secondary antibody, and the cells were co-stained for CD4 and CD25 to detect activated CD4 T cells. The fluorescence intensity of the staining was measured using a FACSCanto II flow cytometer (Becton Dickinson). The geometric mean fluorescence intensity (GMFI) or median fluorescence intensity (MedFI) of anti-OX40 antibody staining was calculated for the CD4+CD25+ population (FACSDiva software). Dose-response curves were generated and EC50s for antibody binding were calculated using GraphPad Prism software.

human OX40 on cells [3] = biological target: T1, human OX40 on cells; assay: FACS, blocking of OX40L-His (0.2 µg/mL) binding to hOX40-293 cells
Experimental: Briefly, 293 cells stably transfected with human OX40 were first pre-incubated with varying concentrations of anti-OX40 antibodies. […] The fluorescence intensity of the staining was measured using a FACSCanto II flow cytometer (Becton Dickinson).

[4] = biological target: T3, his-tagged soluble human OX40 (huOX40-6xhis) (human, UniProt P43489 29-214); assay: SPR, mAb captured on anti-human CH1, OX40-6XHIS analyte, 1:1 fit
T3 construct: made in-house; also called Human-OX40-6XHIS; hOX40; not shown: hexahistidine tag
T3 sequence: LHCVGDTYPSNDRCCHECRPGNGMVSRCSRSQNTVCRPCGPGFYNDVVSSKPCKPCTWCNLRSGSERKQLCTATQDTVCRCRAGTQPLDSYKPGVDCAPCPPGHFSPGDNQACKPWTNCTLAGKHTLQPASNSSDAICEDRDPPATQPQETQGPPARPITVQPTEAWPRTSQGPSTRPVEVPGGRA
Experimental: The affinity of several OX40 antibodies for soluble human OX40 was tested by SPR analysis. […] Human-OX40-6XHIS antigen in either a single concentration of 400 nM or a 1:2 serial dilution from 400 nM was used. Experiments were carried out on BIACORE® T200 or BIACORE® 3000 SPR instruments. Data was fit to a 1:1 model.

human OX40 on cells [5] = biological target: T1, human OX40 on cells; assay: cell-based or functional assay
cynomolgus OX40 on cells [6] = biological target: T2, cynomolgus OX40 on cells; assay: FACS, activated cyno CD4 T cells
Experimental: as §1
The same experiment was performed with anti-OX40 antibodies with variable region substitutions.

human OX40 on cells [7] = biological target: T1, human OX40 on cells; assay: FACS, activated human T cells; mean ± SD, n=2
Experimental: (§2) Cells were activated for several days before the binding assay in order to induce OX40 expression. Briefly, PBMCs were cultured for three or four days with magnetic beads coated with anti-human CD3 plus anti-human CD28, in the presence of recombinant human IL-2. On the day of the assay, the beads were removed and the cells stained with a titration of each anti-OX40 antibody. Bound antibodies were detected with a fluorescently conjugated anti-human IgG polyclonal secondary antibody, and the cells were co-stained for CD4 and CD25 to detect activated CD4 T cells. The fluorescence intensity of the staining was measured using a FACSCanto II flow cytometer (Becton Dickinson). The geometric mean fluorescence intensity (GMFI) or median fluorescence intensity (MedFI) of anti-OX40 antibody staining was calculated for the CD4+CD25+ population (FACSDiva software). EC₅₀s for antibody binding were calculated using GraphPad Prism software.

cynomolgus OX40 on cells [8] = biological target: T2, cynomolgus OX40 on cells; assay: FACS, activated cyno T cells; mean ± SD, n=3
Experimental: as §1

human OX40 on cells [9] = biological target: T1, human OX40 on cells; assay: FACS, activated human T cells; mean ± SD, n=5
human OX40 on cells [10] = biological target: T1, human OX40 on cells; assay: cell-based or functional assay; remark: listed apart in the source
cynomolgus OX40 on cells [11] = biological target: T2, cynomolgus OX40 on cells; assay: FACS, activated cyno T cells; mean ± SD, n=4
Experimental: as §1

human OX40 on cells [12] = biological target: T1, human OX40 on cells; assay: FACS competition on hOX40-293 cells against biotin-OX40.4 (spike biotOX.4 @ 0.4 ug/mL, streptavidin-APC); partial inhibition, FL4-MFI falls from about 12700 to about 8800 at about 130 nM; the table gives no unit, axis in nM
Experimental: (§3) This experiment was performed to test the cross-blocking properties of various anti-OX40 antibodies to assess binding specificities. […] Cells were washed and if necessary further incubated in the presence of streptavidin-APC conjugate under the same conditions. After the final wash, cells were analyzed on a FACSCanto flow cytometer (BD Bioscience, San Jose, Calif.). Mean fluorescence intensity (MFI) signal was proportional to bound conjugated antibody.

human OX40 on cells [13] = biological target: T1, human OX40 on cells; assay: FACS competition on hOX40-293 cells against biotin-OX40.5 (spike biotOX.5 @ 0.4 ug/mL, streptavidin-APC); FL4-MFI falls from about 8700 to about 3800; the table gives no unit, axis in nM
Experimental: as §3

human OX40 on cells [14] = biological target: T1, human OX40 on cells; assay: FACS, activated human T cells; mean ± SD, n=3
Experimental: as §2

human OX40 on cells [15] = biological target: T1, human OX40 on cells; assay: immunohistochemistry, HT1080/huOX40 cells
From the text: Fresh, frozen and/or OCT-embedded human tissues were purchased from multiple commercial tissue networks/vendors (Asterand Inc. Detroit, Mich.; Cooperative Human Tissue Network, Philadelphia, Pa.; ProteoGenex Inc, Culver City, Calif.). […] A nonspecific fluoresceinated human IgG1 was used as isotype control antibody. HT1080 cells stably expressing human OX40 (HT1080/huOX40) and hyperplasic human tonsil tissue sections were used as positive control cells and tissues. […] Stained slides were evaluated under a light microscope.

human OX40 on cells [16] = biological target: T1, human OX40 on cells; assay: FACS competition on hOX40-293 cells against biotin-OX40.4 (spike biotOX.4 @ 0.4 ug/mL, streptavidin-APC); partial inhibition, FL4-MFI falls from about 12700 to about 6000; the table gives no unit, axis in nM
Experimental: as §3

human OX40 on cells [17] = biological target: T1, human OX40 on cells; assay: FACS competition on HT1080-hOX40 cells against APC-OX40.1 (FL2 MFI); the table gives no unit, axis 'Ab conc nM'
Experimental: as §3

human OX40 on cells [18] = biological target: T1, human OX40 on cells; assay: FACS competition on hOX40-293 cells against biotin-OX40.5 (spike biotOX.5 @ 0.4 ug/mL, streptavidin-APC); FL4-MFI falls from about 8700 to about 2900; the table gives no unit, axis in nM
Experimental: as §3

cynomolgus OX40 on cells [19] = biological target: T2, cynomolgus OX40 on cells; assay: FACS, activated cyno T cells; n=1
Experimental: as §1

B1: 18E9 (antibody, V domains shown)
VH: EVQLVQSGGGLVHPGGSLRLSCAHSGFTFTSSAMHWVRQAPGKGLEWISAIGTGGDTYYADSVKGRFTISRDNAKNSLYLQINSLRAEDMAVYYCARDFYDILTGIFDYWGQGTLVTVSS
VL: DIQMTQSPSSVSASVGDRVTITCRASQGISSWLAWYQHKPGKAPKLLIYAASSLQSGVPSRFSGSGSGTDFTLTISSLQPEDFATYYCQQANSFPSTFGQGTKVEIK
notes: human mAb from hybridoma; also called 18E9.G5.H4; 18E9.G5
Human OX40 on cells [1]
  IC50 (read off the curve): ~1 µg/mL
Cynomolgus OX40 on cells [2]
  EC50: 41.7 nM
Human OX40 on cells [3]
  EC50: 0.48 nM
[4]
  Kd: 2.04 nM
  koff: 0.000139 s⁻¹
  kon: 68300 M⁻¹ s⁻¹
Human OX40 on cells [5]
  Proliferation EC50, CD4 T cells + CHO-CD3-CD32A: 0.01 nM
Cynomolgus OX40 on cells [6]
  EC50: 1 to 1.5 nM
Human OX40 on cells [7]
  EC50: 0.22 nM

B2: OX40.16 (antibody, human IgG1, kappa, V domains shown)
VH: EVQLVQSGGGLVQPGGSLRLSCAGSGFTFSSYAMYWVRQAPGKGLEWVSAIDTDGGTFYADSVRGRFTISRDNAKNSLYLQMNSLRAEDTAVYFCARLGEGYFFDYWGQGTLVTVSS
VL: EIVLTQSPATLSLSPGERATLSCRASQSVSSYLAWYQQKPGQAPRLLIYDASNRATGIPARFSGSGSGTDFTLTISSLEPEDFAVYYCQQRSNWPPTFGGGTKVEIKR
Cynomolgus OX40 on cells [8]
  EC50: 0.06 nM
Human OX40 on cells [5]
  IFNγ EC50, CD4 T cells + CHO-CD3-CD32A: 0.044 nM
  Proliferation EC50, CD4 T cells + CHO-CD3-CD32A: 0.017 nM
Human OX40 on cells [9]
  EC50: 0.06 nM
Human OX40 on cells [10]
  EC50 (NK92 cell-mediated ADCC, calcein release): 0.004 µg/mL

B3: 20C1 (antibody, V domains shown)
VH: B2 VH with V2A, Q13H, G24D, S84G, T90M
VL: EIVLTQSPATLSLSPGERATLSCRASQSVSSYLAWYQQKPGQAPRLLIYDASNRATGIPARFSGSGSGTDFTLTISSLEPEDFAVYYCQQRSNWPPTFGGGTKVEIK
notes: also called 20C1.F2.D1; 20C1.F2
Cynomolgus OX40 on cells [11]
  EC50: 0.17 nM
Human OX40 on cells [12]
  EC50: 12.1 nM
Human OX40 on cells [3]
  EC50: 0.34 nM
Human OX40 on cells [13]
  EC50: 6.13 nM
[4]
  Kd: 3.22 nM
  koff: 0.000209 s⁻¹
  kon: 64800 M⁻¹ s⁻¹
Human OX40 on cells [5]
  Proliferation EC50, CD4 T cells + CHO-CD3-CD32A: 0.008 nM
Cynomolgus OX40 on cells [6]
  EC50: 0.068 nM
Human OX40 on cells [10]
  IL-2 EC50, SEB PBMC, soluble crosslinker: 1.3 to 2 nM
Human OX40 on cells [14]
  EC50: 0.1 nM

B4: OX40.20 (antibody, human IgG1, kappa, V domains shown)
VH: B2 VH with D54S
VL: B2 VL
Human OX40 on cells [15]
  binding result: binds

B5: 20B3 (antibody, V domains shown)
VH: EVQLVESGGGLVQPGGSLRLSCAASGFTFSSYDMHWVRQTTGKGLEWVSVIGTAGDTYYPGSVKGRFTISRENAKNSLYLQMNSLRAGDTAVYYCARGGMGNYFDYWGQGTLVTVSS
VL: B3 VL with P96L
notes: also called 20B3.G12.A2; 20B3.G2
Human OX40 on cells [16]
  EC50: 3.86 nM
Cynomolgus OX40 on cells [11]
  EC50: 1.18 nM
Human OX40 on cells [17]
  IC50: 1.17 nM
Human OX40 on cells [3]
  EC50: 0.93 nM
[4]
  Kd: 3.71 nM
  koff: 0.000201 s⁻¹
  kon: 54200 M⁻¹ s⁻¹
Human OX40 on cells [5]
  Proliferation EC50, CD4 T cells + CHO-CD3-CD32A: 0.008 nM
Cynomolgus OX40 on cells [6]
  EC50: 1.4 nM and 1 nM to 1.5 nM (2×)
Human OX40 on cells [14]
  EC50: 0.34 nM
Human OX40 on cells [18]
  EC50: 4.54 nM

B6: 14B6 (antibody, V domains shown)
VH: EVQLEQSGAEVKKPGESLKISCKGSGYSFTSNWIGWVRQMPGKGLEWMGFIYPGDSDTRYSPSFQGQVTISADKSISTAYLQWSSLKASDIAMYYCARYGDDWYFDLWGRGTLVTVSS
VL: B3 VL with Y36F, K39R, T72S, S92G, N93D, P96I, G100Q, K103R, V104L
notes: also called 14B6.C5.C8; 14B6.C5
Human OX40 on cells [17]
  IC50: 0.7 nM
Human OX40 on cells [3]
  EC50: 1 nM
[4]
  Kd: 8.84 nM
  koff: 0.000654 s⁻¹
  kon: 74000 M⁻¹ s⁻¹
Human OX40 on cells [5]
  Proliferation EC50, CD4 T cells + CHO-CD3-CD32A: 0.012 nM
Human OX40 on cells [7]
  EC50: 0.18 nM
Cynomolgus OX40 on cells [19]
  EC50: 0.31 nM
